Laboratory results from patent publication US20240209065A1 (SINGLOMICS BEIJING DANXU BIOPHARMACEUTICALS, published 2024).

B1: DXP-604 monomeric IgA1 (antibody)
heavy: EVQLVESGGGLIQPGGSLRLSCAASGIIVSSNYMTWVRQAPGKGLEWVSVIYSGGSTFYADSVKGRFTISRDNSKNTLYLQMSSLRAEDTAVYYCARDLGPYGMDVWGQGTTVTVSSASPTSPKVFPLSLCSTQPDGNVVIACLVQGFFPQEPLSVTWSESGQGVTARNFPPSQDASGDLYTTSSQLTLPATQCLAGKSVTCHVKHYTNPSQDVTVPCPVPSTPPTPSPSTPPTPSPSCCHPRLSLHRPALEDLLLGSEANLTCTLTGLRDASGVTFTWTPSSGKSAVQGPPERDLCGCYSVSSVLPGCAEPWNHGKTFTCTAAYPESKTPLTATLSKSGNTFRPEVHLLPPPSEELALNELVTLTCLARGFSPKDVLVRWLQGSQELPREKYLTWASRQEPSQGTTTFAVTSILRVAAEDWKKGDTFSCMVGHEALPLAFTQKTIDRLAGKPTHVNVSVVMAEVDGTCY
light: DIQLTQSPSFLSASVGDRVTITCRASQGISSDLAWYQQKPGKAPNLLIYAASTLQSGVPSRFSGSGSGTEFTLTISSLQPEDFATYYCQQLNSDLYTFGQGTKLEIKRTVAAPSVFIFPPSDEQLKSGTASVVCLLNNFYPREAKVQWKVDNALQSGNSQESVTEQDSKDSTYSLSSTLTLSKADYEKHKVYACEVTHQGLSSPVTKSFNRGEC
B2: DXP-604 secretory IgA1 (antibody)
heavy: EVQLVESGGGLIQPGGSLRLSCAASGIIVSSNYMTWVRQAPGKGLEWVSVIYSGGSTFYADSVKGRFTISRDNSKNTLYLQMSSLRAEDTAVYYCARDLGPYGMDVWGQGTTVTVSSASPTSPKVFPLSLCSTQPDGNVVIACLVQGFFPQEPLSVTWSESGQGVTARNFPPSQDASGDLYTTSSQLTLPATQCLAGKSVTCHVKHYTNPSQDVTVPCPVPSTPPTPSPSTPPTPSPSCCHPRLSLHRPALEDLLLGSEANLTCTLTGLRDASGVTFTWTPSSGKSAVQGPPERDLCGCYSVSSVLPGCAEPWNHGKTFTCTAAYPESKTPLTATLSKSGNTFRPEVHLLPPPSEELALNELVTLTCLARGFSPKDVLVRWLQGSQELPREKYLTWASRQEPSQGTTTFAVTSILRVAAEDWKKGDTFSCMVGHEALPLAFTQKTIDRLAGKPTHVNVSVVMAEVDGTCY
light: B1 light
chain 1: not shown
chain 2: not shown
B3: DXP-604 dimeric IgA1 (antibody)
heavy: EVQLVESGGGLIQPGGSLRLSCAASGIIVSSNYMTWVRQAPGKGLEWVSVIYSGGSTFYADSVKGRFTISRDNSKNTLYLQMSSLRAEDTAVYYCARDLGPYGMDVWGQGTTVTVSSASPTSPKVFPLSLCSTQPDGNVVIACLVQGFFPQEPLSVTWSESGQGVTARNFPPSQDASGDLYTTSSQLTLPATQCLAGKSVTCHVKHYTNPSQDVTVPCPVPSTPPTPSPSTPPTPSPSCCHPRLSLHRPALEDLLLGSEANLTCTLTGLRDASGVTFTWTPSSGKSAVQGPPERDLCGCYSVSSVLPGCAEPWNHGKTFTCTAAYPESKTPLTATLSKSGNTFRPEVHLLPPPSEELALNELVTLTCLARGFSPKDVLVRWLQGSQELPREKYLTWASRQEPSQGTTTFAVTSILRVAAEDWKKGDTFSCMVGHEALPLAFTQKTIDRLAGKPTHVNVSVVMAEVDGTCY
light: B1 light
chain: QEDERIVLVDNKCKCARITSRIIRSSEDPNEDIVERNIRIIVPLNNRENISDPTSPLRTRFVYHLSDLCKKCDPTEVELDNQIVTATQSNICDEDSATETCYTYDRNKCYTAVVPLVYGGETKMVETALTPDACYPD

Columns and labels:
Experiment in all cases: cell-based or functional assay
[1] = molecular target: S protein of authentic SARS-CoV-2 Omicron BA.2 virus (SARS-CoV-2, UniProt P0DTC2 14-1273)
[2] = molecular target: S protein of authentic SARS-CoV-2 Omicron BA.5 virus (SARS-CoV-2, UniProt P0DTC2 14-1273)
[3] = molecular target: S protein of authentic SARS-CoV-2 Omicron BA.1 virus (SARS-CoV-2, UniProt P0DTC2 14-1273)
[4] = molecular target: S protein (SΔ19) of Omicron BQ.1 pseudovirus (SARS-CoV-2, UniProt P0DTC2 14-1254)
[5] = molecular target: S protein (SΔ19) of Omicron BQ.1.1 pseudovirus (SARS-CoV-2, UniProt P0DTC2 14-1254)

Binder	IC50, microneutralization assay with authentic virus [1] [nM]	fold increase of neutralization activity over parental IgG, authentic virus [1] [fold]	IC50, microneutralization assay with authentic virus [2] [nM]	fold increase of neutralization activity over parental IgG, authentic virus [2] [fold]	IC50, microneutralization assay with authentic virus [3] [nM]	fold increase of neutralization activity over parental IgG, authentic virus [3] [fold]	IC50, pseudovirus assay (HIV platform) [4] [nM]	fold increase of neutralizing activity compared to IgG, pseudovirus [4] [fold]	IC50, pseudovirus assay (HIV platform) [5] [nM]	fold increase of neutralizing activity compared to IgG, pseudovirus [5] [fold]	fold more potent in neutralizing than IgG, authentic virus [2] [fold]
B1	0.16	17	0.35	35.5	3.43	6.7	–	–	–	–	–
B2	0.03	–	0.09	–	0.44	–	1.41	6	1.59	5.5	–
B3	0.06	–	0.13	–	0.38	–	3.2	2.6	4.88	1.8	92
